Here are results for 4 molecules from patent publication US20080261863A1 (Bayer, published 2008).

Ends that are not written are not given here.

The target in the test is T1, VPAC1 receptor.
T1 sequence (P32241 whole entry, species assumed, looked up): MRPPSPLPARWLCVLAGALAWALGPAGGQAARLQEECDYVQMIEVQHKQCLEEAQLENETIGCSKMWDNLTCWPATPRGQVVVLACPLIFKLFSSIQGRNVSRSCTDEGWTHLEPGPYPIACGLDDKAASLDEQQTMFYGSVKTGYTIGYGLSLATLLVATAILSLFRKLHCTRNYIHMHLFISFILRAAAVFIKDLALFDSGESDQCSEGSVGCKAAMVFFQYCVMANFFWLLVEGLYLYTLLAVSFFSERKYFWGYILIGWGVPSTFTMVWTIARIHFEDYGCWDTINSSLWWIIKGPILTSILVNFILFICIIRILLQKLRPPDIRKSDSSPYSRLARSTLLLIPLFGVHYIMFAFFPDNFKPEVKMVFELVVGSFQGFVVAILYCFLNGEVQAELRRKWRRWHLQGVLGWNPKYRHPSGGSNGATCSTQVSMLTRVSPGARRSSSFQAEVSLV
As to the kind of experiment: cell-based or functional assay.

B1: P412 (P12+43 kD PEG) (peptide)
peptide: HSDAVFTDQYTRLRKQVAAKKYLQSIKQKRYC
modifications: branched 43 kD PEG attached to the C-terminal cysteine via maleimide (thioether) linkage
With B1, the “EC50 (nM), cAMP assay, VPAC1 agonist activity” value (“EC50 (nM), cAMP assay” below) is > 1000 nM.

B2: P212 (P12+22 kD PEG) (peptide)
peptide: HSDAVFTDQYTRLRKQVAAKKYLQSIKQKRYC
modifications: linear 22 kD PEG attached to the C-terminal cysteine via maleimide (thioether) linkage
Turning to B2, the “EC50 (nM), cAMP assay” value was > 1000 nM.

Regarding HSDAVFTDQYTRLRKQVAAKKYLQSIKQKRYC (ends and bridges not checked) [P12], the “EC50 (nM), cAMP assay” value was > 1000 nM.

Regarding HSDAVFTDQYTRLRKQVAAKKYLQSIKQKRY (ends and bridges not checked) [P5], the “EC50 (nM), cAMP assay” value was 232 nM.
